The results in this text go back to the Human Domainome abundance scans (Beltran et al. 2025).

The labels stand for the following.
B1: POU domain, class 4, transcription factor 1, residues 266 to 347; numbered along this chain, Q01851 (parent)
chain: RELEAFAERFKQRRIKLGVTQADVGSALANLKIPGVGSLSQSTICRFESLTLSHNNMIALKPILQAWLEEAEGAQREKMNKP

± gives the uncertainty stated by the source.

The variants in this series derive from B1. Nature of the series: abundance fitness (aPCA) (normalised: wild type 0, dead -1); higher = more abundant; growth selection in yeast, the domain comes from the species named. The settings on record: Homo sapiens.
As for RELEAFAERFKQRRIKLGVTQADVGSALANLKIPGVASLSQSTICRFESLTLSHNNMIALKPILQAWLEEAEGAQREKMNKP [G37A], the abundance fitness was -0.045 ± 0.028.

Take RELEAFAERFKQRRIKLGVTQADVGSALANLKIPGVCSLSQSTICRFESLTLSHNNMIALKPILQAWLEEAEGAQREKMNKP [G37C]: the abundance fitness was -0.058 ± 0.047.

As to RELEAFAERFKQRRIKLGVTQADVGSALANLKIPGEGSLSQSTICRFESLTLSHNNMIALKPILQAWLEEAEGAQREKMNKP [V36E], the abundance fitness was -0.125 ± 0.086.

Regarding RELEAFAERFKQRRIKLGVTQADVGSALANLKIPGRGSLSQSTICRFESLTLSHNNMIALKPILQAWLEEAEGAQREKMNKP [V36R], the abundance fitness was -0.214 ± 0.062.

Regarding RELEAFAERFKQRRIKLGVTQADVGSALANLKIPGIGSLSQSTICRFESLTLSHNNMIALKPILQAWLEEAEGAQREKMNKP [V36I], the abundance fitness worked out at 0.013 ± 0.13.

In the case of RELEAFAERFKQRRIKLGVTQADVGSALANLKIPGSGSLSQSTICRFESLTLSHNNMIALKPILQAWLEEAEGAQREKMNKP [V36S], the abundance fitness was -0.096 ± 0.24.

On to RELEAFAERFKQRRIKLGVTQADVGSALANLKIPGKGSLSQSTICRFESLTLSHNNMIALKPILQAWLEEAEGAQREKMNKP [V36K], for which the abundance fitness is -0.138 ± 0.14.

Consider RELEAFAERFKQRRIKLGVTQADVGSALANLKIPGCGSLSQSTICRFESLTLSHNNMIALKPILQAWLEEAEGAQREKMNKP [V36C], for which the abundance fitness is -0.225 ± 0.18.

Turning to RELEAFAERFKQRRIKLGVTQADVGSALANLKIPGQGSLSQSTICRFESLTLSHNNMIALKPILQAWLEEAEGAQREKMNKP [V36Q], the abundance fitness was -0.252 ± 0.17.

For the variant RELEAFAERFKQRRIKLGVTQADVGSALANLKIPGLGSLSQSTICRFESLTLSHNNMIALKPILQAWLEEAEGAQREKMNKP [V36L], the abundance fitness is 0.003 ± 0.12.

Consider RELEAFAERFKQRRIKLGVTQADVGSALANLKIPGYGSLSQSTICRFESLTLSHNNMIALKPILQAWLEEAEGAQREKMNKP [V36Y], for which the abundance fitness was -0.257 ± 0.38.

As to RELEAFAERFKQRRIKLGVTQADVGSALANLKIPGGGSLSQSTICRFESLTLSHNNMIALKPILQAWLEEAEGAQREKMNKP [V36G], the abundance fitness was -0.142 ± 0.11.

Consider RELEAFAERFKQRRIKLGVTQADVGSALANLKIPGNGSLSQSTICRFESLTLSHNNMIALKPILQAWLEEAEGAQREKMNKP [V36N], for which the abundance fitness is -0.327 ± 0.19.

For RELEAFAERFKQRRIKLGVTQADVGSALANLKIPGDGSLSQSTICRFESLTLSHNNMIALKPILQAWLEEAEGAQREKMNKP [V36D], the abundance fitness was -0.463 ± 0.42.

In the case of RELEAFAERFKQRRIKLGVTQADVGSALANLKIPGMGSLSQSTICRFESLTLSHNNMIALKPILQAWLEEAEGAQREKMNKP [V36M], the abundance fitness is -0.189 ± 0.22.

For RELEAFAERFKQRRIKLGVTQADVGSALANLKIPGTGSLSQSTICRFESLTLSHNNMIALKPILQAWLEEAEGAQREKMNKP [V36T], the abundance fitness was 0.24 ± 0.15.

In the case of RELEAFAERFKQRRIKLGVTQADVGSALANLKIWGVGSLSQSTICRFESLTLSHNNMIALKPILQAWLEEAEGAQREKMNKP [P34W], the abundance fitness is -0.322 ± 0.041.

As for RELEAFAERFKQRRIKLGVTQADVGSALANLKIQGVGSLSQSTICRFESLTLSHNNMIALKPILQAWLEEAEGAQREKMNKP [P34Q], the abundance fitness is -0.027 ± 0.039.

On to RELEAFAERFKQRRIKLGVTQADVGSALANLKIHGVGSLSQSTICRFESLTLSHNNMIALKPILQAWLEEAEGAQREKMNKP [P34H], for which the abundance fitness was -0.167 ± 0.063.

In the case of RELEAFAERFKQRRIKLGVTQADVGSALANLKIYGVGSLSQSTICRFESLTLSHNNMIALKPILQAWLEEAEGAQREKMNKP [P34Y], the abundance fitness is -0.387 ± 0.082.

With RELEAFAERFKQRRIKLGVTQADVGSALANLKITGVGSLSQSTICRFESLTLSHNNMIALKPILQAWLEEAEGAQREKMNKP [P34T], the abundance fitness was -0.011 ± 0.039.

For RELEAFAERFKQRRIKLGVTQADVGSALANLKILGVGSLSQSTICRFESLTLSHNNMIALKPILQAWLEEAEGAQREKMNKP [P34L], the abundance fitness was -0.186 ± 0.036.

As for RELEAFAERFKQRRIKLGVTQADVGSALANLKINGVGSLSQSTICRFESLTLSHNNMIALKPILQAWLEEAEGAQREKMNKP [P34N], the abundance fitness was -0.133 ± 0.063.

For RELEAFAERFKQRRIKLGVTQADVGSALANLKIEGVGSLSQSTICRFESLTLSHNNMIALKPILQAWLEEAEGAQREKMNKP [P34E], the abundance fitness was determined as 0.027 ± 0.033.

For RELEAFAERFKQRRIKLGVTQADVGSALANLKIGGVGSLSQSTICRFESLTLSHNNMIALKPILQAWLEEAEGAQREKMNKP [P34G], the abundance fitness is -0.088 ± 0.024.

Regarding RELEAFAERFKQRRIKLGVTQADVGSALANLKIAGVGSLSQSTICRFESLTLSHNNMIALKPILQAWLEEAEGAQREKMNKP [P34A], the abundance fitness was 0 ± 0.029.

As for RELEAFAERFKQRRIKLGVTQADVGSALANLKIIGVGSLSQSTICRFESLTLSHNNMIALKPILQAWLEEAEGAQREKMNKP [P34I], the abundance fitness was -0.197 ± 0.066.

For RELEAFAERFKQRRIKLGVTQADVGSALANLKIMGVGSLSQSTICRFESLTLSHNNMIALKPILQAWLEEAEGAQREKMNKP [P34M], the abundance fitness was -0.163 ± 0.041.

Consider RELEAFAERFKQRRIKLGVTQADVGSALANLKIKGVGSLSQSTICRFESLTLSHNNMIALKPILQAWLEEAEGAQREKMNKP [P34K], for which the abundance fitness is -0.065 ± 0.043.

For RELEAFAERFKQRRIKLGVTQADVGSALANLKIFGVGSLSQSTICRFESLTLSHNNMIALKPILQAWLEEAEGAQREKMNKP [P34F], the abundance fitness is -0.097 ± 0.065.

For RELEAFAERFKQRRIKLGVTQADVGSALANLKTPGVGSLSQSTICRFESLTLSHNNMIALKPILQAWLEEAEGAQREKMNKP [I33T], the abundance fitness is -0.145 ± 0.039.

RELEAFAERFKQRRIKLGVTQADVGSALANLKEPGVGSLSQSTICRFESLTLSHNNMIALKPILQAWLEEAEGAQREKMNKP [I33E]: the abundance fitness was -0.22 ± 0.033.

RELEAFAERFKQRRIKLGVTQADVGSALANLKLPGVGSLSQSTICRFESLTLSHNNMIALKPILQAWLEEAEGAQREKMNKP [I33L]: the abundance fitness was found to be 0.024 ± 0.028.
